Laboratory results reported in paper PMC8764033, “Single-molecule analysis of specificity and multivalency in binding of short linear substrate motifs to the APC/C” (Nature Communications, 2022).
“And” between values parts separate entries of the source, which are not always exact repeats. Equal entries are not always repeated.

How the values were obtained:
APC/C = conditions: APC/C^Cdc20 vs APC/C^Cdh1; cited from earlier work
Text: We find that the yeast securin ...

Cdh1^WD40 = biological target: T1, Cdh1^WD40 (Saccharomyces cerevisiae, UniProt P53197); experiment: SMOR assay (single-molecule off-rate, TIRF), yeast Cdh1^WD40; type: binding; conditions: for mean dwell time: representative of two independent experiments, ± SE, ligand ≤1 nM, buffer C + BSA
T1 construct: the WD40 domains of yeast Cdh1 (aa 241–550; pNH144); made in house; host or cells: Sf9 insect cells (baculovirus)
T1 sequence (P53197 241-550): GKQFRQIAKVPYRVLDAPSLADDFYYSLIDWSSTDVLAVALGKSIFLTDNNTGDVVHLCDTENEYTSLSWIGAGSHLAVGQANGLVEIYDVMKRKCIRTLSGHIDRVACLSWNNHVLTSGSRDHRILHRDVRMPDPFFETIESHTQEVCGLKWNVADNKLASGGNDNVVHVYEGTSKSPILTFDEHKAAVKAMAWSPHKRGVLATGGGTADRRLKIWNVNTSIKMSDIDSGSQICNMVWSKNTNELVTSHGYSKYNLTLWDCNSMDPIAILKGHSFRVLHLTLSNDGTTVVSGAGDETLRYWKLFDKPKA
Procedure: Activators were cloned into the pFastBac HT A vector, with an N-terminal 2xStrep-Tag II. For some experiments, we constructed vectors for expression of the WD40 domains of yeast Cdh1 (aa 241–550; pNH144), human Cdh1 (aa 165–484; pNH164), or human Cdc20 (aa 162–484; pNH188). For SMOR, a C-terminal GFP tag was added. Bacmid plasmids are listed in Supplementary Table 3. Plasmids were transformed into DH10Bac cells, and purified Bacmid was used to transfect Sf9 cells to generate P1 baculovirus, which was used to generate P2 virus. SF9 cells were infected with the P2 virus for 48 h. Flash-frozen pellets were lysed by sonication or high-pressure homogenization in lysis buffer B (50 mM Tris-HCl pH 8, 150 mM KCl, 0.5 mM EDTA, 1 mM DTT, 10% Glycerol, EDTA-free protease inhibitor tablet, 1 µg ml^−1 pepstatin A). After the lysate was applied to the StrepTrap column, the column was washed with wash buffer B (lysis buffer B lacking protease inhibitors) and eluted in the same buffer containing 2.5 mM desthiobiotin.
For all SMOR experiments, 24 × 50 mm high precision glass coverslips (Bioscience Tools) and drilled microscope slides were passivated with a combination of PEG and PEG-biotin (coverslips) or PEG only (slides) following a previously published protocol for SiMPull[31]. Reaction chambers (~20 µl) were created using double-sided tape and epoxy. Protein was immobilized on the surface with 0.2 mg ml^−1 NeutrAvidin in buffer C (20 mM HEPES pH 7.5, 150 mM KCl, 10% glycerol, 0.05% Tween-20, 1 mM DTT). Excess NeutrAvidin was washed away and incubated with either biotin-conjugated mouse monoclonal anti-Strep-Tag II antibody (LSBio, Cat. No. LS-C203632-100) or biotin-conjugated rabbit polyclonal anti-GFP antibody (Rockland, Cat. No. 600-406-215) diluted in buffer C + BSA (0.1 mg ml^−1; Molecular Biology Grade Bovine Serum Albumin). Activator WD40 and activated APC/C (typically 50 µl containing about 65 ng APC/C, of which only a small fraction is immobilized on the glass) were immobilized using anti-Strep-Tag II, while APC/C alone was immobilized with anti-GFP. SMOR results were similar when performed in the buffer (wash buffer B) used in polarization anisotropy.
To capture dynamic protein–protein interactions, dye-labeled substrate diluted in buffer C + BSA was added to the chamber containing immobilized proteins. Interactions were imaged by TIRF microscopy as described below. For optimal signal-to-noise ratio, peptide concentration was no greater than 1 nM. Protein substrates included Hsl1 aa 667–872 and a C-terminal HaloTag followed by a TAP tag, and were produced by translation in rabbit reticulocyte lysates using TnT Quick Coupled Transcription/Translation System (Promega) (see Supplementary Table 5 for plasmids). Protein was purified with magnetic IgG beads and labeled on the bead with JF549 or JF646 dye so that unbound dye could be washed away. Purified dye-labeled protein was then cleaved from the beads using TEV protease. Before adding substrate to the reaction chamber, oxygen scavenging reagents were added (10 nM protocatechuate-3,4-dioxygenase, 2.5 mM protocatechuic acid, and 1 mM Trolox)[41]. A detailed description of the SMOR analysis pipeline is found in Supplementary Note 1.
Microscopy was performed with a Nikon Eclipse TE2000-E with Perfect Focus with a 100 × 1.49na oil, Apo TIRF DIC N2, 0.13-0.2, WD0.12 objective. Movies were recorded using the Andor iXon DU-897E-CSO. […]

B1: Hsl1^Halo KEN & D: Hsl1 fragment (amino acids 667–872) with C-terminal HaloTag, JF549-labeled (protein)
chain: QNSASKRSLYSLQSISKRSLNLNDLLVFDDPLPSKKPASENVNKSEPHSLESDSDFEILCDQILFGNALDRILEEEEDNEKERDTQRQRQNDTKSSADTFTISGVSTNKENEGPEYPTKIEKNQFNMSYKPSENMSGLSSFPIFEKENTLSSSYLEEQKPKRAALSDITNSFNKMNKQEGMRIEKKIQREQLQKKNDRPSPLKPIQ
modifications: JF549 or JF646 dye covalently bound to the HaloTag; left off: HaloTag, C-terminal, kept | TAP, C-terminal, cleaved
notes: Hsl1 fragment (amino acids 667–872) with C-terminal HaloTag, JF549-labeled
APC/C
  processivity of ubiquitylation (in words): more processively modified by APC/C^Cdh1
Cdh1^WD40; Supplementary Table 1, replicate 1 (movie listed first)
  Dwell Time: 73.520 ± 3.075 s
Cdh1^WD40; Supplementary Table 1, replicate 2 (movie listed second)
  Dwell Time: 56.447 ± 2.072 s
Cdh1^WD40
  mean dwell time: 56.4 ± 2 s and 56.4 s
Cdh1^WD40; listed as Hsl1 fragment
  mean dwell time: 56.4 ± 2 s
Cdh1^WD40; vs D (and KEN) box peptide
  fold increase in dwell time vs degron peptide alone: 100 fold
